According to patent publication US20260226179A1 (MAB DESIGNS, published 2026):
Where “and” joins values, the source holds several entries; their conditions need not be identical. Equal entries are not always repeated.

T1: human soluble IL-6R (human, UniProt P08887 20-357, limits assumed)
T1 sequence: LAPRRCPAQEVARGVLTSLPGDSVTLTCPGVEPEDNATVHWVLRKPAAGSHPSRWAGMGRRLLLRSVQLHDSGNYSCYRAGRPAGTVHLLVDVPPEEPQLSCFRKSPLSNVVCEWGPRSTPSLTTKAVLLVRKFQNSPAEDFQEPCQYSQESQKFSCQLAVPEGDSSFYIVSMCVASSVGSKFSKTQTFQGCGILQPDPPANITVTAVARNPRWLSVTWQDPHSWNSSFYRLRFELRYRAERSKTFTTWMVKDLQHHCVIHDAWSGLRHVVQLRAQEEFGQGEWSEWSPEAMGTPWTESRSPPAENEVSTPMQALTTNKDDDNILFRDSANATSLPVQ

T2: human membrane-bound IL-6R subunit alpha (human, UniProt P08887 20-468)
T2 sequence: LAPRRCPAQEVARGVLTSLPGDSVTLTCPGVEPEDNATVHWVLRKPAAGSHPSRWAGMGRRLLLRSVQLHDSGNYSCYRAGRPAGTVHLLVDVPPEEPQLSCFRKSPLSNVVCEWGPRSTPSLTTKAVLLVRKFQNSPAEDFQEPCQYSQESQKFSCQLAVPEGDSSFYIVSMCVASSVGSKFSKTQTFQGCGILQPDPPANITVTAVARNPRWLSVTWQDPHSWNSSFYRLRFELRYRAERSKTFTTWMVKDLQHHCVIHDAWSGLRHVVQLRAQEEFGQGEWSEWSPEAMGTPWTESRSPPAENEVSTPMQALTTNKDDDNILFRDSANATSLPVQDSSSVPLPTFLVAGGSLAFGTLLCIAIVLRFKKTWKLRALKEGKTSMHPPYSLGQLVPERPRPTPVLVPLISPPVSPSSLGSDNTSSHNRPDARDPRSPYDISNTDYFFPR

T3: mouse membrane-bound IL-6R subunit alpha (mouse, UniProt P22272 20-460)
T3 sequence: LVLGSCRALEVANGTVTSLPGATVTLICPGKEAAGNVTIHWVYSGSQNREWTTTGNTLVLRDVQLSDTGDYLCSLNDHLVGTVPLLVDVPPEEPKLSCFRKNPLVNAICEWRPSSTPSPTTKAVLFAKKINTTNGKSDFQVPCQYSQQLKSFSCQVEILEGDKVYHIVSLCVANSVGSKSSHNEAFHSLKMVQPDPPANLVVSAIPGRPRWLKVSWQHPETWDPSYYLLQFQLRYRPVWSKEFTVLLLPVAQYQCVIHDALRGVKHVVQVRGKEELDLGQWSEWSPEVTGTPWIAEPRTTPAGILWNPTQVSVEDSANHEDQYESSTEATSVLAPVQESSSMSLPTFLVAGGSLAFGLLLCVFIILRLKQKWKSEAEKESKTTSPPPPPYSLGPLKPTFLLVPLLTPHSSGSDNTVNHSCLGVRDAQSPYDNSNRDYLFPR

T4: murine soluble IL-6R (mouse, UniProt P22272 20-347, limits assumed)
T4 sequence: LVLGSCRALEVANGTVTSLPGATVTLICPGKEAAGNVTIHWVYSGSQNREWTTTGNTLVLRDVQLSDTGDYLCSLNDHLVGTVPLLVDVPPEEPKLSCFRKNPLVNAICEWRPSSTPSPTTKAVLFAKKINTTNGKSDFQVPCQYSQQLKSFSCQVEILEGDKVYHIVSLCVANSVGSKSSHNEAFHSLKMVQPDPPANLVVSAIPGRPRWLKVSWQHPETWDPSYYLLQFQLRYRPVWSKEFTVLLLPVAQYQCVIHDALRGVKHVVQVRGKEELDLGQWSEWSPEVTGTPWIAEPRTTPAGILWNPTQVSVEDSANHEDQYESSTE


Tests used:
Experiment in all cases: cell-based or functional assay
human soluble IL-6R [1] = target: T1, human soluble IL-6R
[2] = target: Hyper-IL-6 (recombinant fusion protein consisting of IL-6 and soluble IL-6R)
[3] = target: T2, human membrane-bound IL-6R subunit alpha
[4] = target: T2, human membrane-bound IL-6R subunit alpha; remark: listed apart in the source
[5] = target: T2, human membrane-bound IL-6R subunit alpha; remark: listed apart in the source
[6] = target: T3, mouse membrane-bound IL-6R subunit alpha
murine soluble IL-6R = target: T4, murine soluble IL-6R
[7] = target: T3, mouse membrane-bound IL-6R subunit alpha; remark: listed apart in the source
human soluble IL-6R [8] = target: T1, human soluble IL-6R; remark: listed apart in the source
[9] = target: T2, human membrane-bound IL-6R subunit alpha; remark: listed apart in the source
[10] = target: T2, human membrane-bound IL-6R subunit alpha; remark: listed apart in the source

Row | Binder | IC50 of inhibition of proliferation of Ba/F3_gp130 cells induced by 10 ng/ml IL-6 and 200 ng/ml sIL-6R (human soluble IL-6R [1]) | IC50 of inhibition of proliferation of Ba/F3_gp130 cells induced by 28 ng/ml Hy-IL-6 [2] | Proliferation in % of Ba/F3_gp130_IL-6R cells (10 ng/ml IL-6 = 100%), IgG at 1 µg/ml [3] | Proliferation in % of Ba/F3_gp130_IL-6R cells (10 ng/ml IL-6 = 100%), IgG at 10 µg/ml [3] | Proliferation in % of Ba/F3_gp130_IL-6R cells with 10 ng/ml IL-6 and 200 ng/ml sIL-6R (mixed signalling), IgG at 1 µg/ml [4] | Proliferation in % of Ba/F3_gp130_IL-6R cells with 10 ng/ml IL-6 and 200 ng/ml sIL-6R (mixed signalling), IgG at 10 µg/ml [4] | IC50 for inhibition of IL-6 classical signalling-induced proliferation [5] | Proliferation in % of Ba/F3_gp130_muIL-6R cells (10 ng/ml murine IL-6 = 100%), IgG at 10 µg/ml [6] | Proliferation in % of Ba/F3_gp130 cells (10 ng/ml murine IL-6 + 200 ng/ml murine soluble IL-6R = 100%), IgG at 10 µg/ml (murine soluble IL-6R) | Proliferation in % of Ba/F3_gp130_muIL-6R cells (10 ng/ml murine IL-6 + 200 ng/ml murine soluble IL-6R = 100%, mixed signalling), IgG at 10 µg/ml [7] | STAT3 phosphorylation in % in HEK293 cells (10 ng/ml IL-6 + 200 ng/ml sIL-6R for 30 min = 100%), IgG at 1 µg/ml (human soluble IL-6R [8]) | STAT3 phosphorylation in % in HEK293_IL-6R cells (10 ng/ml IL-6 for 30 min = 100%), IgG at 1 µg/ml [9] | STAT3 phosphorylation in % in HEK293_IL-6R cells (10 ng/ml IL-6 + 200 ng/ml sIL-6R = 100%, mixed signalling), IgG at 1 µg/ml [10]
1 | anti-IL-6R IgG antibody 07 (C07 antibody, Fab chimerized with human IgG1) (antibody, V domains shown) VH: EVKLVESGGGLVQPGGSLKLSCAASGFTFSSYAMSWVRQTADKRLELVANINSNGGSTYYPDSVKGRFTISRDNAKNTLFLQMSSLKSEDTAMYYCAREGYYTMDYWGQGTSVTVSS VL: DIVLTQSPASLAVSPGQRATISCRASESVDSYGNSFMNWYQQKPGQPPKLLIYLASNLESGVPARFSGSGSRTDFTLTIDPVEADDAATYYCQQNNEDPYTFGGGTKLEIK | 757 ng/ml and 5 nM | 644 ng/ml and 4.3 nM | 92% | 90.8% | 93% | 85.9% | > 53 nM | 101% | 104% | 108% | 2.8% | 86.2% | 105%
2 | anti-IL-6R IgG antibody 09 (C09 antibody, Fab chimerized with human IgG1) (antibody, V domains shown) VH: EVQLVESGGDLVQPGGSLKLSCAASGFTFSNYGMSWVRQTPDKRLELVAAINSNGGSTYYPDSVKGRFTISRDNAKNTLYLQMSSLKSEDTAMYYCARDGNYVSDYWGQGTTLTVSS VL: DIVLTQSPASLAVSLGQRATISCRASESVDSYGNSFMHWYQQKPGQPPKLLIYLASNLESGVPARFSGSGSRTDFTLTIDPVEADDAATYYCQQNNEDPWTFGGGTKLEIK | 5260 ng/ml and 35 nM | 4130 ng/ml and 28 nM | 100% | 94% | 101% | 97.6% | > 53 nM | 104% | 104% | 106% | 20% | 69.7% | 102%

More lines, now with the values ahead:

Row | IC50 of inhibition of proliferation of Ba/F3_gp130 cells induced by 10 ng/ml IL-6 and 200 ng/ml sIL-6R (human soluble IL-6R [1]) | IC50 of inhibition of proliferation of Ba/F3_gp130 cells induced by 28 ng/ml Hy-IL-6 [2] | Proliferation in % of Ba/F3_gp130_IL-6R cells (10 ng/ml IL-6 = 100%), IgG at 1 µg/ml [3] | Proliferation in % of Ba/F3_gp130_IL-6R cells (10 ng/ml IL-6 = 100%), IgG at 10 µg/ml [3] | Proliferation in % of Ba/F3_gp130_IL-6R cells with 10 ng/ml IL-6 and 200 ng/ml sIL-6R (mixed signalling), IgG at 1 µg/ml [4] | Proliferation in % of Ba/F3_gp130_IL-6R cells with 10 ng/ml IL-6 and 200 ng/ml sIL-6R (mixed signalling), IgG at 10 µg/ml [4] | IC50 for inhibition of IL-6 classical signalling-induced proliferation [5] | Proliferation in % of Ba/F3_gp130_muIL-6R cells (10 ng/ml murine IL-6 = 100%), IgG at 10 µg/ml [6] | Proliferation in % of Ba/F3_gp130 cells (10 ng/ml murine IL-6 + 200 ng/ml murine soluble IL-6R = 100%), IgG at 10 µg/ml (murine soluble IL-6R) | Proliferation in % of Ba/F3_gp130_muIL-6R cells (10 ng/ml murine IL-6 + 200 ng/ml murine soluble IL-6R = 100%, mixed signalling), IgG at 10 µg/ml [7] | STAT3 phosphorylation in % in HEK293 cells (10 ng/ml IL-6 + 200 ng/ml sIL-6R for 30 min = 100%), IgG at 1 µg/ml (human soluble IL-6R [8]) | STAT3 phosphorylation in % in HEK293_IL-6R cells (10 ng/ml IL-6 for 30 min = 100%), IgG at 1 µg/ml [9] | STAT3 phosphorylation in % in HEK293_IL-6R cells (10 ng/ml IL-6 + 200 ng/ml sIL-6R = 100%, mixed signalling), IgG at 1 µg/ml [10] | Binder
3 | 1210 ng/ml and 8 nM | 755 ng/ml and 5 nM | 100% | 93.1% | 104% | 95.2% | > 53 nM | 105% | 108% | 116% | 6.9% | 89.5% | 98.4% | anti-IL-6R IgG antibody 19 (C19 antibody, Fab chimerized with human IgG1) (antibody, V domains shown) VH: EVKLMESGGGLVQPGGSLKLSCAASGFTFSNYGMSWVRQTPDKRLELVAIMNSKGGSTYYPDSVMGRFTISRDNAKNTLYLQMSSLKSEDTAMYYCARDGYYTMDYWGQGTSVTVSS VL: DIVLTQSPASLAVSLGQRATISCRASKSVDSFGNSFMHWYQQKPGQSPRLLIFLASNLESGVPARFSGSGSRTDFTLTIDPVEADDAATYYCQQNNEDPYTFGGGTKLEIK
4 | 531 ng/ml and 3.5 nM | 304 ng/ml and 2 nM | 92.6% | 87.6% | 94.7% | 88.6% | > 53 nM | 108% | 86.2% | 114% | 0.2% | 86.9% | 88.1% | anti-IL-6R IgG antibody 20 (C20 antibody, Fab chimerized with human IgG1) (antibody, V domains shown) VH: EVKLMESGGGLVQPGGSLKLSCAASGFTFSNYGMSWVRQTPDKRLELVAIINSNGGSTYYPDSVKGRFTISRDNAKNTLYLQMSSLKSEDTAIYYCARDGNFVSDYWGQGTTLTVSS VL: DIVLTQSPASLAVSLGQRATISCRASESVDSYGNRFLNWYQQKPGQPPKLLIYLASNLESGVPARFSGSGSRTDFTLTIDPVEADDAATYYCQQNNEDPYTFGGGTKLEIK
5 | 863 ng/ml and 5.8 nM | 748 ng/ml and 5 nM | 94.3% | 92.2% | 94.3% | 87.6% | > 53 nM | 102% | 106% | 114% | 4% | 97.8% | 99.9% | anti-IL-6R IgG antibody 12 (C12 antibody, Fab chimerized with human IgG1) (antibody, V domains shown) VH: EVKLMESGGGLVQPGGSLKLSCAASGFTFSNYGMSWVRQTPDKRLEWVANINSNGGSTYYPDSVKGRFTISRDNAQNTLYLQMSSLKSEDTAMYYCTRDGNFVSDYWGQGTTLTVSS VL: DIVLTQSPASLAVSPGQRATISCRASESVDSYGNSFMNWYQQKPGQPPKLLIYLASNLESGVPARFSGSGSRTDFTLTIDPVEADDAATYYCQQNNEDPYTFGGGTKLEIK
